{"source": "paper doi:10.1101/2022.12.07.519389", "about": "(bioRxiv, 2022)", "proteins": {"B1": {"name": "CPEB3 residues 1-217 (prion-like domain 1 construct) (domain or fragment)", "chain": "MQDDLLMDKSKTQPQPQQQQRQQQQPQPESSVSEAPSTPLSSETPKPEENSAVPALSPAAAPPAPNGPDKMQMESPLLPGLSFHQPPQQPPPPQEPAAPGASLSPSFGSTWSTGTTNAVEDSFFQGITPVNGTMLFQNFPHHVNPVFGGTFSPQIGLAQTQHHQQPPPPAPAPQPAQPAQPPQAQPPQQRRSPASPSQAPYAQRSAAAAYGHQPIMT"}}, "target": "the molecule itself", "test": "negative-stain EM + ThT fluorescence", "data": [{"protein": "B1", "values": [{"measurement": "binding result", "value": "binds"}]}]}
